In the data set the test system is HeLa Kyoto. The data set can be described thus: melting temperature (median over replicates), in situ; higher = more thermally stable.

This note sets out measurements from the supplement of paper PMC5998384.
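Also: HeLa Kyoto cells synchronized by double thymidine or nocodazole block, proteins quantified by TMT10plex mass spectrometry, three independent biological replicates.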

Chain of DESI2 (chain, as listed by the source): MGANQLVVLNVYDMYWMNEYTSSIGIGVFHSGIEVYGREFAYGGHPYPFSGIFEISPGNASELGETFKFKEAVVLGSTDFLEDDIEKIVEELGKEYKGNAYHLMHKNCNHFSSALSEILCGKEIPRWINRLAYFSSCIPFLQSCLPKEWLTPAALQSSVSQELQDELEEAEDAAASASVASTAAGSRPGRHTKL

Under “cell cycle stage: G1/S”, DESI2 returned a melting temperature of 53.8 °C. With “MAAAAAGAGSGPWAAQEKQFPPALLSFFIYNPRFGPREGQEENKILFYHPNEVEKNEKIRNVGLCEAIVQFTRTFSPSKPAKSLHTQKNRQFFNEPEENFWMVMVVRNPIIEKQSKDGKPVIEYQEEELLDKVYSSVLRQCYSMYKLFNGTFLKAMEDGGVKLLKERLEKFFHRYLQTLHLQSCDLLDIFGGISFFPLDKMTYLKIQSFINRMEESLNIVKYTAFLYNDQLIWSGLEQDDMRILYKYLTTSLFPRHIEPELAGRDSPIRAEMPGNLQHYGRFLTGPLNLNDPDAKCRFPKIFVNTDDTYEELHLIVYKAMSAAVCFMIDASVHPTLDFCRRLDSIVGPQLTVLASDICEQFNINKRMSGSEKEPQFKFIYFNHMNLAEKSTVHMRKTPSVSLTSVHPDLMKILGDINSDFTRVDEDEEIIVKAMSDYWVVGKKSDRRELYVILNQKNANLIEVNEEVKKLCATQFNNIFFLD [CCZ1B]”, the melting temperature by setting is: (cell cycle stage: G1/S) 50.9 °C; (cell cycle stage: mitosis) 51.8 °C. In turn, “MAAHRKHVFVEKVLQRLFPPVPSGQGKREPQTLAVQNPPKKVTSEKVSQKHAEPLTDTGSETPTARRLYTASGPPEGYVPCWPEPSSCGSPENASSGDDTEDQDPHDQPKRRRIRKHKSKKKFKNPNNVLIEQAELEKQQSLLQEKSQRQHTDGTTISKNKKRKLKKKQQIKRKKAAGLAAKAAGVSFMYQPEDSSNEGEGVGEACEEDGVDTSEEDPTLAGEEDVKDTREEDGADASEEDLTRARQEEGADASEEDPTPAGEEDVKDAREEDGVDTIEEDLTRAGEEDGKDTREEDGADASEEDPTWAGEEEGADSGEEDGADASEEDDTITNEKAHSILNFLKSTQEMYFYDGVSRDAASAALADAAEELLDRLASHSMLPSDVSILYHMKTLLLLQDTERLKHALEMFPEHCTMPPDHARVISAFFSYWITHILPEKSSD [ERICH1]” yielded a melting temperature (cell cycle stage: mitosis) of 52.6 °C. For “MAEAEESPGDPGTASPRPLFAGLSDISISQDIPVEGEITIPMRSRIREFDSSTLNESVRNTIMRDLKAVGKKFMHVLYPRKSNTLLRDWDLWGPLILCVTLALMLQRDSADSEKDGGPQFAEVFVIVWFGAVTITLNSKLLGGNISFFQSLCVLGYCILPLTVAMLICRLVLLADPGPVNFMVRLFVVIVMFAWSIVASTAFLADSQPPNRRALAVYPVFLFYFVISWMILTFTPQ [YIPF6]”, the melting temperature reads like this: (cell cycle stage: G1/S) 55 °C; (cell cycle stage: mitosis) 54.6 °C. On the same counts, the results for “MAGAGSAAVSGAGTPVAGPTGRDLFAEGLLEFLRPAVQQLDSHVHAVRESQVELREQIDNLATELCRINEDQKVALDLDPYVKKLLNARRRVVLVNNILQNAQERLRRLNHSVAKETARRRAMLDSGIYPPGSPGK [SNAPIN]” are 53 °C and 54.5 °C. Turning to “MAGLEVLFASAAPAITCRQDALVCFLHWEVVTHGYFGLGVGDQPGPNDKKSELLPAGWNNNKDLYVLRYEYKDGSRKLLVKAITVESSMILNVLEYGSQQVADLTLNLDDYIDAEHLGDFHRTYKNSEELRSRIVSGIITPIHEQWEKANVSSPHREFPPATAREVDPLRIPPHHPHTSRQPPWCDPLGPFVVGGEDLDPFGPRRGGMIVDPLRSGFPRALIDPSSGLPNRLPPGAVPPGARFDPFGPIGTSPPGPNPDHLPPPGYDDMYL [PSMF1]”, the melting temperature (cell cycle stage: mitosis) stood at 53 °C. As for “MAPRALPGSAVLAAAVFVGGAVSSPLVAPDNGSSRTLHSRTETTPSPSNDTGNGHPEYIAYALVPVFFIMGLFGVLICHLLKKKGYRCTTEAEQDIEEEKVEKIELNDSVNENSDTVGQIVHYIMKNEANADVLKAMVADNSLYDPESPVTPSTPGSPPVSPGPLSPGGTPGKHVCGHHLHTVGGVVERDVCHRCRHKRWHFIKPTNKSRESRPRRQGEVTVLSVGRFRVTKVEHKSNQKERRSLMSVSGAETVNGEVPATPVKRERSGTE [RELL1]”, the melting temperature (cell cycle stage: G1/S) turned out to be 54.7 °C. In turn, “MAQEVDTAQGAEMRRGAGAARGRASWCWALALLWLAVVPGWSRVSGIPSRRHWPVPYKRFDFRPKPDPYCQAKYTFCPTGSPIPVMEGDDDIEVFRLQAPVWEFKYGDLLGHLKIMHDAIGFRSTLTGKNYTMEWYELFQLGNCTFPHLRPEMDAPFWCNQGAACFFEGIDDVHWKENGTLVQVATISGNMFNQMAKWVKQDNETGIYYETWNVKASPEKGAETWFDSYDCSKFVLRTFNKLAEFGAEFKNIETNYTRIFLYSGEPTYLGNETSVFGPTGNKTLGLAIKRFYYPFKPHLPTKEFLLSLLQIFDAVIVHKQFYLFYNFEYWFLPMKFPFIKITYEEIPLPIRNKTLSGL [CLN5]” yielded a melting temperature (cell cycle stage: mitosis) of 53.8 °C. For “MASGGGGGNTGAGGGPGMGLSLGLGLGLSLGMSEATSEAEEEAATAEAVGRLATTLWLRLRGWEAVLAAAQRLLVWEKPLHSLVTAAALNGLFWLLSSSSLRPFFLLSVSLLAYFLLDLWQPRFLPDVSASSPEEPHSDSEGAGSGARPHLLSVPELCRYLAESWLTFQIHLQELLQYKRQNPAQFCVRVCSGCAVLAVLGHYVPGIMISYIVLLSILLWPLVVYHELIQRMYTRLEPLLMQLDYSMKAEANALHHKHDKRKRQGKNAPPGGDEPLAETESESEAELAGFSPVVDVKKTALALAITDSELSDEEASILESGGFSVSRATTPQLTDVSEDLDQQSLPSEPEETLSRDLGEGEEGELAPPEDLLGRPQALSRQALDSEEEEEDVAAKETLLRLSSPLHFVNTHFNGAGSPPDGVKCSPGGPVETLSPETVSGGLTALPGTLSPPLCLVGSDPAPSPSILPPVPQDSPQPLPAPEEEEALTTEDFELLDQGELEQLNAELGLEPETPPKPPDAPPLGPDIHSLVQSDQEAQAVAEP [FAM134A]”, the melting temperature (cell cycle stage: mitosis) was 55.2 °C. Turning to “MASLKCSTVVCVICLEKPKYRCPACRVPYCSVVCFRKHKEQCNPETRPVEKKIRSALPTKTVKPVENKDDDDSIADFLNSDEEEDRVSLQNLKNLGESATLRSLLLNPHLRQLMVNLDQGEDKAKLMRAYMQEPLFVEFADCCLGIVEPSQNEES [ZNHIT3]”, the melting temperature reads like this: (cell cycle stage: G1/S) 50.4 °C; (cell cycle stage: mitosis) 52.7 °C. Consider “MATQAKRPRVAGPVDGGDLDPVACFLSWCRRVGLELSPKVSERAGGRRTRGGARAALTSPPAQVAVSRQGTVAGYGMVARESVQAGELLFVVPRAALLSQHTCSIGGLLERERVALQSQSGWVPLLLALLHELQAPASRWRPYFALWPELGRLEHPMFWPEEERRCLLQGTGVPEAVEKDLANIRSEYQSIVLPFMEAHPDLFSLRVRSLELYHQLVALVMAYSFQEPLEEEEDEKEPNSPVMVPAADILNHLANHNANLEYSANCLRMVATQPIPKGHEIFNTYGQMANWQLIHMYGFVEPYPDNTDDTADIQMVTVREAALQGTKTEAERHLVYERWDFLCKLEMVGEEGAFVIGREEVLTEEELTTTLKVLCMPAEEFRELKDQDGGGDDKREEGSLTITNIPKLKASWRQLLQNSVLLTLQTYATDLKTDQGLLSNKEVYAKLSWREQQALQVRYGQKMILHQLLELTS [SETD6]”, for which the melting temperature (cell cycle stage: mitosis) worked out at 50.4 °C.

For the substance “MEADGDGEELARLRSVFAACDANRSGRLEREEFRALCTELRVRPADAEAVFQRLDADRDGAITFQEFARGFLGSLRGGRRRDWGPLDPAPAVSEAGPETHDSEEDEGDEDAAAALATSCGPASPGRAWQDFQARLGDEAKFIPREEQVSTLYQNINLVEPRLIQPYEHVIKNFIREIRLQSTEMENLAIAVKRAQDKAAMQLSELEEEMDQRIQAAEHKTRKDEKRKAEEALSDLRRQYETEVGDLQVTIKKLRKLEEQSKRVSQKEDVAALKKQIYDLSMENQKVKKDLLEAQTNIAFLQSELDALKSDYADQSLNTERDLEIIRAYTEDRNSLERQIEILQTANRKLHDSNDGLRSALENSYSKFNRSLHINNISPGNTISRSSPKFIGHSPQPLGYDRSSRSSYVDEDCDSLALCDPLQRTNCEVDSLPESCFDSGLSTLRDPNEYDSEVEYKHQRGFQRSHGVQESFGGDASDTDVPDIRDEETFGLEDVASVLDWKPQGSVSEGSIVSSSRKPISALSPQTDLVDDNAKSFSSQKAYKIVLAGDAAVGKSSFLMRLCKNEFRENISATLGVDFQMKTLIVDGERTVLQLWDTAGQERFRSIAKSYFRKADGVLLLYDVTCEKSFLNIREWVDMIEDAAHETVPIMLVGNKADIRDTAATEGQKCVPGHFGEKLAMTYGALFCETSAKDGSNIVEAVLHLAREVKKRTDKDDSRSITNLTGTNSKKSPQMKNCCNG [RASEF]”, the melting temperature is, setting by setting: (cell cycle stage: G1/S) 49.8 °C; (cell cycle stage: mitosis) 50 °C.
